Assay results taken from publication PMC12234471, “The apicoplast localized isocitrate dehydrogenase is needed for de novo fatty acid synthesis in the apicoplast of Toxoplasma gondii” (Frontiers in Cellular and Infection Microbiology, 2025).

Substrate: O=C(O)C[C@H](C(=O)O)[C@@H](O)C(=O)O
Test: purified protein
Assay type: biochemical, Toxoplasma gondii
Conditions: NADP+ co-substrate; Solarbio ICDHm kit

B1: TgICDH1 (Toxoplasma gondii) (protein)
chain: QRIKVDQPVVEMDGDEMARVIWAMIKEKLILPYLDIPLMYYDLSIQHRDKTDDQVTIDAALAIKRHGVGVKCATITPDEQRVKEFNLKKMWKSPNATIRNTLDGTIFRAPILMKNVPRLVPSWTKPIIIGRHAHADQYKALDFTVDKPGRFVMSFIPADKSNPEVHEVYEFKGGGVALGMYNTDASIKGFAHSCFQYALDQKMPLYLSTKNTVLKKYDGRFKDIFQTIYEKEYKQKFEEAGLWYEHRLIDDMVAQAIKSSGGFVWACKNYDGDVQSDVVAQGYGSLGLMTSVLVCPDGKTIEAEAAHGTVTRHYRQYQKGIKTSTNPIASIYAWTRSLGHRAKLDNNQKLKEFVEALEDACVETVEAGFMTKDLALAIKGDKLTDRDYLCTEDFMDKLARVAERKLLERQIISKA
notes: truncation AA180-594 (leader peptide removed), cloned from RH cDNA in pET-sumo, His-tag resin purified from E. coli BL21
Km: 160.7 µM
